T1: GST-fused Sec31A 8-residue peptide P4S (human, P4S)
T1 construct: Sec31A residues 837-844; numbers count on: the 8-residue peptide (N1 = residue 837 of Sec31A)
T1 chain: NPPSPGFI

T2: GST-8 aa-fusion of PLSCR3 (43–50) (UniProt Q9NRY6 43-50)
T2 construct: PLSCR3 residues 43-50; also called PLSCR3 8 aa, encoding 43–50
T2 chain (looked up): PAPAPGFA

B1: biotin-labeled ALG-2 (natural protein, human, UniProt O75340 1-191, looked up)
chain: MAAYSYRPGPGAGPGPAAGAALPDQSFLWNVFQRVDKDRSGVISDTELQQALSNGTWTPFNPVTVRSIISMFDRENKAGVNFSEFTGVWKYITDWQNVFRTYDRDNSGMIDKNELKQALSGFGYRLSDQFHDILIRKFDRQGRGQIAFDDFIQGCIVLQRLTDIFRRYDTDQDGWIQVSYEQYLSMVFSIV
modifications: biotin-labeled
notes: ALG-2 (PDCD6), probe of the far-Western blots; also called bio-ALG-2

Key:
Assay in all cases: far-Western, overlay or dot blot; purified GST-fused peptides resolved by SDS-PAGE, transferred to PVDF membranes and probed with biotin-labeled ALG-2; chemiluminescence, quantified with ImageJ
Details in all cases: both partners purified
biotin-labeled ALG-2 = molecular target: B1
[1] = molecular target: T1, GST-fused Sec31A 8-residue peptide P4S
[2] = molecular target: T2, GST-8 aa-fusion of PLSCR3 (43–50)

| binding result (biotin-labeled ALG-2) | relative binding activity (percent of WT) [1] | FW signal relative to that for Sec31A [2] | Binder |
| --- | --- | --- | --- |
| binds | – | – | NPPPLGFI (Sec31A residues 837-844; numbers count on: the 8-residue peptide (N1 = residue 837 of Sec31A)) [GST-fused Sec31A 8-residue peptide P5L] |
| binds | – | – | NPPPAGFI (Sec31A residues 837-844; numbers count on: the 8-residue peptide (N1 = residue 837 of Sec31A)) [GST-fused Sec31A 8-residue peptide P5A] |
| binds | – | – | PPPGFIMHGNVNP (peptide, UniProt O94979 839-851, looked up, also called Sec31A 13 aa, encoding 839–851) [GST-fused Sec31A peptide, 13 aa (839–851)] |
| – | ~20 % of WT | < 0.0625 of the signal for Sec31A | B1 |
| binds | – | – | NPPPPGFIMHGNV (peptide, UniProt O94979 837-849, looked up, Sec31A residues 837-849; also called Sec31A 13 aa, encoding 837–849) [GST-fused Sec31A peptide, 13 aa (837–849)] |
| binds | – | – | NAPPPGFI (Sec31A residues 837-844; numbers count on: the 8-residue peptide (N1 = residue 837 of Sec31A)) [GST-fused Sec31A 8-residue peptide P2A] |
| binds | – | – | NPPAPGFI (Sec31A residues 837-844; numbers count on: the 8-residue peptide (N1 = residue 837 of Sec31A)) [GST-fused Sec31A 8-residue peptide P4A] |
